For one molecule, EC50 results are on record in patent CN114605532A (BEIJING FIRST BIOCHEMICAL PHARMACEUTICAL LTD COMPANY, dated 2022).

This experiment deals with 抗原(bs-0107P). As to the kind of experiment: indirect ELISA, antigen bs-0107P coated at 2 μg/ml (0.2 μg/well), purified antibody in serial dilution, HRP goat anti-mouse IgG, OD450. For orientation: In an ELISA, binding on a coated surface is turned into a signal by an enzyme label.
Sequence of 抗原(bs-0107P) (P05067 672-713): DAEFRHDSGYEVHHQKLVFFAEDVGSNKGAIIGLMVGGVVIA

B1: 抗β-淀粉样蛋白单克隆抗体7D10-1E6 (antibody, V domains shown)
VH: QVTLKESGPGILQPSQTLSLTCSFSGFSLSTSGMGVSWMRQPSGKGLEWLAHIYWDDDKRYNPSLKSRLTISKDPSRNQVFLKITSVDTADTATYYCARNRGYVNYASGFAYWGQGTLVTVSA
VL: DVLMTQTPLSLPVSLGDQASISCRSSQSIVHSNGNTYLEWYLQKPGQSPKLLIYKVSNRFSGVPDRFSGSGSGTDFILKINRVEAEDLGVYYCFQGSHVPLTFGAGTKLELK
Regarding B1, the concentration for a half-maximal effect (EC50) is 0.0237 nM.

The term EC50 denotes the midpoint of the concentration-response curve. A higher EC50 goes with a need for much substance.
